The results in this text go back to patent US20200024610.

Holding throughout (test): cell_activity
Data set [1] has as its system TALEN 5' monomer for SEQ 34 site (synthetic construct). Conditions: pair with p4; corn protoplasts; unmethylated region.
Data set [2] concerns TALEN 3' monomer for SEQ 93 site (synthetic construct). The note with it: pair with p3; corn protoplasts; unmethylated region.
Data set [3] relates to TALEN 5' monomer for SEQ 35 site (synthetic construct). The note with it: pair with p2; corn protoplasts; unmethylated region.
Data set [4] concerns TALEN 3' monomer for SEQ 94 site (synthetic construct). The note with it: pair with p1; corn protoplasts; unmethylated region.

“TCGTGTGACTGCTCCCAAA (double strand) [TALEN site 34]” yielded an activity (% integration) in data set [1] of 7.
For “TCTACTAAAGAGGTAGCAC (double strand) [TALEN site 93]”, the activity (% integration) in data set [2] was determined as 7.
The sequence “TCTCCTATCATAACGTTTG (double strand) [TALEN site 35]” displayed an activity (% integration) in data set [3] of 16.
In the case of “TGAGTTTGAGACCCACCTG (double strand) [TALEN site 94]”, the activity (% integration) in data set [4] worked out at 16.
